From publication PMC5302901 come the findings set out here.

This assay has as its target Grb2 (UniProt Q07883). In words: IP of Grb2, blot for CD22. To be noted: reference: CD22-WT; sites Y773,Y783,Y828,Y843,Y863.

As for CD22 (from UniProt P35329) F1/2/4/5/6, the “binding against the reference” value is reported as “lost”.
